Measurements from publication PMC10497414.
Read-outs that look alike come from different tables or passages of the source. Values belong to the substance of their own block, whether it stands above or below them.

Experiments:
[1] = biological target: human NKp46 (Gln22-Asn255) (Homo sapiens) (UniProt O76036)
Target sequence in this assay (O76036 22-255): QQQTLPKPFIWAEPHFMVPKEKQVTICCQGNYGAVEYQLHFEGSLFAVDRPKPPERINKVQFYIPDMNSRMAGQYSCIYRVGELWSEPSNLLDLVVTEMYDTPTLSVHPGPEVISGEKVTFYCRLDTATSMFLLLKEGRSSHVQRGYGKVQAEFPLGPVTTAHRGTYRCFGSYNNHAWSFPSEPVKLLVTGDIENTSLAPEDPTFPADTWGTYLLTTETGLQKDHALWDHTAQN

[2] = biological target: human NKp46 (Gln22-Asn255) (Homo sapiens) (UniProt O76036); test: SPR; Biacore T200, CM5 chip, 25 °C; CD123-NKCE (0.06 µg/ml) captured on anti-human Fc chip (human antibody capture kit); NKp46 or CD123 injected at 1.56 to 100 nM in HBS-EP+; 1:1 binding model with mass transport limitation; monovalent KD
[3] = biological target: recombinant human CD123 (Homo sapiens) (UniProt P26951); test: as above
[4] = biological target: human CD16a (human FcγRIIIA), V isoform (human) (UniProt P08637); test: SPR
[5] = biological target: human CD32a (human FcγRIIA) (human) (UniProt P12318); test: SPR
cynomolgus CD123 = test: SPR; conditions: bispecific antibody
[6] = biological target: human CD16a (human FcγRIIIA), F isoform (human) (UniProt P08637); test: SPR
[7] = biological target: human CD32b (human FcγRIIB) (human) (UniProt P31994); test: SPR
[8] = biological target: human CD16b (human FcγRIIIB) (human) (UniProt O75015); test: SPR
[9] = biological target: human CD64 (human FcγRI) (human) (UniProt P12314); test: SPR
[10] = biological target: cynomolgus CD32a (cynomolgus) (UniProt Q8SPW4); test: SPR
[11] = biological target: human neonatal Fc receptor (human) (UniProt P55899); test: SPR; conditions: bispecific antibody
[12] = biological target: cynomolgus NKp46 (Gln17-Asn254) (cynomolgus) (UniProt Q95JB9); test: SPR; conditions: bispecific antibody
[13] = biological target: cynomolgus CD16 (cynomolgus) (UniProt Q8SPW2); test: SPR
[14] = biological target: cynomolgus CD64 (cynomolgus) (UniProt Q8SPW5); test: SPR
[15] = biological target: cynomolgus CD32b (cynomolgus) (UniProt Q8SPW3); test: SPR
[16] = biological target: cynomolgus FcRn (cynomolgus) (UniProt Q8SPV9); test: SPR
Chain of cynomolgus FcRn (cynomolgus) (Q8SPV9 24-365): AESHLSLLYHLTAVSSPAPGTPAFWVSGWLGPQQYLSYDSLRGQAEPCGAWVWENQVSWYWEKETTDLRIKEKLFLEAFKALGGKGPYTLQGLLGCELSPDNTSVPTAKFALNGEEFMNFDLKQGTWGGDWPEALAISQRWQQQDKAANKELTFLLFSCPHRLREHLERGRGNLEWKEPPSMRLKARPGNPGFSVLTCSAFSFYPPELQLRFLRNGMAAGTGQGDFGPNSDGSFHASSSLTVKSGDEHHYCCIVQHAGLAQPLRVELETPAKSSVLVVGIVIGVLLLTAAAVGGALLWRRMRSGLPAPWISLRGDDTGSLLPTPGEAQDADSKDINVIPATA

Chain of human CD16a (human FcγRIIIA), V isoform (human) (P08637 17-208 F176V): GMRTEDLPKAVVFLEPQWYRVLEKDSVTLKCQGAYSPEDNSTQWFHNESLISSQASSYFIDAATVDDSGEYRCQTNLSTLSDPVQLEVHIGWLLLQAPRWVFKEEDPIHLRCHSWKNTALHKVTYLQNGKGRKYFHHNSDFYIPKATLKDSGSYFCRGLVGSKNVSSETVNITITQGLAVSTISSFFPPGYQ
Chain of human CD32b (human FcγRIIB) (human) (P31994 43-310): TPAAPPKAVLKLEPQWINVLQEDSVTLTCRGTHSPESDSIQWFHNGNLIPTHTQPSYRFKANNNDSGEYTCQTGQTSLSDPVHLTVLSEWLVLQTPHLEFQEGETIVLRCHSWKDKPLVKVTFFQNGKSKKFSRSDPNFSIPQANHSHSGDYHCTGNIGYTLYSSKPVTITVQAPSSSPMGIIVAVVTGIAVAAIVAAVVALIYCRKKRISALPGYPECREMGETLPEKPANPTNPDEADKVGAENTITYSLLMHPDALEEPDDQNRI
Chain of human CD16a (human FcγRIIIA), F isoform (human) (P08637 17-208): as the sequence (P08637 17-208 F176V) above, with V160F counted along it
Chain of human CD16b (human FcγRIIIB) (human) (O75015 17-200): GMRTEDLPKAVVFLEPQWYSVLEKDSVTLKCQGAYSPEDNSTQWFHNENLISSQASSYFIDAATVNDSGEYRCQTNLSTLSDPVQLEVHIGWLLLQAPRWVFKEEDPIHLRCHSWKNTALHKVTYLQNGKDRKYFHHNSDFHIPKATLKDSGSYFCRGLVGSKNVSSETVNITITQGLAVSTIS
Chain of human CD64 (human FcγRI) (human) (P12314 16-374): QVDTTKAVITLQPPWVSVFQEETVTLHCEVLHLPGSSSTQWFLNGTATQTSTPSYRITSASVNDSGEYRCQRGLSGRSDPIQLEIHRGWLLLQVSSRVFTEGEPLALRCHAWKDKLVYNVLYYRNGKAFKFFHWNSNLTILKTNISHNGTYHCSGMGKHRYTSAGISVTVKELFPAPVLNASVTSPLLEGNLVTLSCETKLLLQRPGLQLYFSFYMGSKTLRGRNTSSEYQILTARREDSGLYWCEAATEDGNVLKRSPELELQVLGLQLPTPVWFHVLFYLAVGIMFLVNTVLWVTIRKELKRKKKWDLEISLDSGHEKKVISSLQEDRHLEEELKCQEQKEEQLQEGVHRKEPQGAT
Chain of human CD32a (human FcγRIIA) (human) (P12318 34-317): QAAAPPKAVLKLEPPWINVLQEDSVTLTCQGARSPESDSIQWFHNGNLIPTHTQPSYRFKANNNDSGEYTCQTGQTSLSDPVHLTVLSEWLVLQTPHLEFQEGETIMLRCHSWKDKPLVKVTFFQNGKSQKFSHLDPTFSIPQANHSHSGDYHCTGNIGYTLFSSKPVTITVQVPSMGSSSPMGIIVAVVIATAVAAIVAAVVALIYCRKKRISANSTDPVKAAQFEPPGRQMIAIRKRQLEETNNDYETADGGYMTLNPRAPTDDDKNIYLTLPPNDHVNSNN
Chain of cynomolgus CD16 (cynomolgus) (Q8SPW2 17-254): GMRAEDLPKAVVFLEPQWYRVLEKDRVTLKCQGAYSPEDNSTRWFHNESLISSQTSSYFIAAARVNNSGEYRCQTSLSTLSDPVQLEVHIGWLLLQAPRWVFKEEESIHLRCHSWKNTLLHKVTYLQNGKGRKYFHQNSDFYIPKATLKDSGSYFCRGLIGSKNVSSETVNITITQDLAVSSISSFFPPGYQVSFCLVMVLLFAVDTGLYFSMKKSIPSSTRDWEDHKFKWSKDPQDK
Chain of cynomolgus NKp46 (Gln17-Asn254) (cynomolgus) (Q95JB9 17-254): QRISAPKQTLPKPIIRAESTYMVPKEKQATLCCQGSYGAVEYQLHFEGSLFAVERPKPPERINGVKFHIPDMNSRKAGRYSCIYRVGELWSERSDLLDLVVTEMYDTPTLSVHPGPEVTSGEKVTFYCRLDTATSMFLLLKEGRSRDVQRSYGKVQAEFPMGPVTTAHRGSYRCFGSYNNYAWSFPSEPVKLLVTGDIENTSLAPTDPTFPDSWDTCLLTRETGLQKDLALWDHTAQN
Chain of human neonatal Fc receptor (human) (P55899 24-365): as the sequence (Q8SPV9 24-365) above, with D39N, Q44E, S99G, G189S, N190S, M217L, T269S, S319V, S332L, I335V counted along it

- Kd [2]: 16.6 nM
- Kd [3]: 0.4 nM
Substance: CD123-NKCE (trifunctional NKp46-CD16a-NK cell engager targeting CD123) (bispecific antibody)
- NK cell-mediated cytotoxicity (Cr-51 release) against MOLM-13 cells with NK cells from healthy donors, geometric mean EC50; NKp46 and CD16a coengaged [1]: 0.0042 nM
- NK cell-mediated cytotoxicity (Cr-51 release) against MOLM-13 cells with NK cells from healthy donors, mean observed maximum specific lysis; NKp46 and CD16a coengaged [1]: 71%

- Kd ([4]; bispecific antibody): 462 nM
- Kd ([5]; bispecific antibody): 1220 nM
- Kd (cynomolgus CD123): 1.23 nM
- Kd ([6]; bispecific antibody): 2610 nM
- Kd ([7]; bispecific antibody): 3200 nM
- Kd ([8]; bispecific antibody): 6690 nM
- Kd ([9]; bispecific antibody): 0.2 nM
- Kd ([10]; bispecific antibody): 5180 nM
- Kd [11]: 109 nM
- Kd [12]: 29 nM
- Kd ([13]; bispecific antibody): 466 nM
- Kd ([14]; bispecific antibody): 12 nM
- Kd ([15]; bispecific antibody): 1890 nM
- Kd ([16]; bispecific antibody): 282 nM
Substance: CD123-NKCE (trifunctional NKp46-CD16a-NK cell engager targeting CD123)

- Kd [4]: 575 nM
- Kd [5]: 1570 nM
- Kd [6]: 2820 nM
- Kd [7]: 4230 nM
- Kd [8]: 7540 nM
- Kd [9]: 0.2 nM
- Kd [10]: 6340 nM
- Kd [13]: 580 nM
- Kd [14]: 18 nM
- Kd [15]: 2320 nM
- Kd [16]: 237 nM
Substance: Human IgG1 control
